Assay results from patent publication US20230340128A1.
Residue numbers refer to the chain shown, from its start.

B1: XENP31701 (bispecific antibody, part only; not given: anti-CD3 scFv-Fc arm, constant regions, V domains shown, not shown: another chain or arm of the molecule; a dimerising Fc or GST; small tags and cut ends)
VH: QVQLVQSGAEVKKPGASVKVSCKASGYTFTSYWMHWVRQAPGQGLEWMGMIHPNSDNTIYYEKFQGRVTMTVDKSISTAYMELSRLRSDDTAVYYCAIIITPVVPKFDYWGQGTLVTVSS
VL: DIVMTQSPDSLAVSLGERATINCKASHDVGTSVAWYQQKPGQSPKLLIYWASTRHTGVPDRFTGSGSGTDFTLTISSLQAEDVAVYFCQQYSSYPLTFGAGTKLEIK
B2: XENP32564 (bispecific antibody, part only; not given: anti-CD3 scFv-Fc arm, constant regions, V domains shown, not shown: another chain or arm of the molecule; a dimerising Fc or GST; small tags and cut ends)
VH: B1 VH
VL: B1 VL with V33L
B3: XENP32557 (bispecific antibody, part only; not given: anti-CD3 scFv-Fc arm, constant regions, V domains shown, not shown: another chain or arm of the molecule; a dimerising Fc or GST; small tags and cut ends)
VH: B1 VH with T101S
VL: B1 VL
B4: XENP32553 (bispecific antibody, part only; not given: anti-CD3 scFv-Fc arm, constant regions, V domains shown, not shown: another chain or arm of the molecule; a dimerising Fc or GST; small tags and cut ends)
VH: B1 VH with H52N
VL: B1 VL
B5: XENP32570 (bispecific antibody, part only; not given: anti-CD3 scFv-Fc arm, constant regions, V domains shown, not shown: another chain or arm of the molecule; a dimerising Fc or GST; small tags and cut ends)
VH: B1 VH with D56G
VL: B1 VL with D28S
B6: XENP32551 (bispecific antibody, part only; not given: anti-CD3 scFv-Fc arm, constant regions, V domains shown, not shown: another chain or arm of the molecule; a dimerising Fc or GST; small tags and cut ends)
VH: B1 VH with W33Y
VL: B1 VL
B7: XENP32565 (bispecific antibody, part only; not given: anti-CD3 scFv-Fc arm, constant regions, V domains shown, not shown: another chain or arm of the molecule; a dimerising Fc or GST; small tags and cut ends)
VH: B1 VH
VL: B1 VL with H55E
B8: XENP32568 (bispecific antibody, part only; not given: anti-CD3 scFv-Fc arm, constant regions, V domains shown, not shown: another chain or arm of the molecule; a dimerising Fc or GST; small tags and cut ends)
VH: B1 VH
VL: B1 VL with Y94T
B9: XENP32556 (bispecific antibody, part only; not given: anti-CD3 scFv-Fc arm, constant regions, V domains shown, not shown: another chain or arm of the molecule; a dimerising Fc or GST; small tags and cut ends)
VH: B1 VH with I98R
VL: B1 VL
B10: XENP32558 (bispecific antibody, part only; not given: anti-CD3 scFv-Fc arm, constant regions, V domains shown, not shown: another chain or arm of the molecule; a dimerising Fc or GST; small tags and cut ends)
VH: B1 VH with K106R
VL: B1 VL
B11: XENP32566 (bispecific antibody, part only; not given: anti-CD3 scFv-Fc arm, constant regions, V domains shown, not shown: another chain or arm of the molecule; a dimerising Fc or GST; small tags and cut ends)
VH: B1 VH
VL: B1 VL with T56S
B12: XENP32559 (bispecific antibody, part only; not given: anti-CD3 scFv-Fc arm, constant regions, V domains shown, not shown: another chain or arm of the molecule; a dimerising Fc or GST; small tags and cut ends)
VH: B1 VH
VL: B1 VL with A25S
B13: XENP32555 (bispecific antibody, part only; not given: anti-CD3 scFv-Fc arm, constant regions, V domains shown, not shown: another chain or arm of the molecule; a dimerising Fc or GST; small tags and cut ends)
VH: B1 VH with D56G
VL: B1 VL
B14: XENP32550 (bispecific antibody, part only; not given: anti-CD3 scFv-Fc arm, constant regions, V domains shown, not shown: another chain or arm of the molecule; a dimerising Fc or GST; small tags and cut ends)
VH: B1 VH with S31G
VL: B1 VL
B15: XENP32560 (bispecific antibody, part only; not given: anti-CD3 scFv-Fc arm, constant regions, V domains shown, not shown: another chain or arm of the molecule; a dimerising Fc or GST; small tags and cut ends)
VH: B1 VH
VL: B1 VL with H27Q
B16: XENP32569 (bispecific antibody, part only; not given: anti-CD3 scFv-Fc arm, constant regions, V domains shown, not shown: another chain or arm of the molecule; a dimerising Fc or GST; small tags and cut ends)
VH: B1 VH with N54Q
VL: B1 VL with D28S
B17: XENP32554 (bispecific antibody, part only; not given: anti-CD3 scFv-Fc arm, constant regions, V domains shown, not shown: another chain or arm of the molecule; a dimerising Fc or GST)
VH: B1 VH with N54Q
VL: B1 VL
B18: XENP32940 (bispecific antibody, part only; not given: anti-CD3 scFv-Fc arm, constant regions, V domains shown, not shown: another chain or arm of the molecule; a dimerising Fc or GST; small tags and cut ends)
VH: B1 VH with M50W
VL: B1 VL with Y94F
B19: XENP32939 (bispecific antibody, part only; not given: anti-CD3 scFv-Fc arm, constant regions, V domains shown, not shown: another chain or arm of the molecule; a dimerising Fc or GST; small tags and cut ends)
VH: B1 VH with M50W
VL: B1 VL with T31Q
B20: XENP32938 (bispecific antibody, part only; not given: anti-CD3 scFv-Fc arm, constant regions, V domains shown, not shown: another chain or arm of the molecule; a dimerising Fc or GST; small tags and cut ends)
VH: B1 VH with E62Y
VL: B1 VL with S92Y
B21: XENP32943 (bispecific antibody, part only; not given: anti-CD3 scFv-Fc arm, constant regions, V domains shown, not shown: another chain or arm of the molecule; a dimerising Fc or GST; small tags and cut ends)
VH: B1 VH with M50W
VL: B1 VL with Y94I

biological target: cyno MSLN (Macaca fascicularis); assay: BLI (Octet), bsAb in 1+1 Fab-scFv-Fc format

Kd [nM]	Response	koff [s⁻¹]	kon [M⁻¹ s⁻¹]	Binder
0.0938	0.737	5.74e-05	612000	B1
0.0297	0.849	2.01e-05	676000	B2
0.62	1.09	0.000321	518000	B3
0.585	1.06	0.000337	575000	B4
0.155	0.95	0.000105	676000	B5
1.66	1.1	0.000822	495000	B6
0.255	1	0.000151	592000	B7
	0.0728			B8
0.395	1.07	0.000157	399000	B9
0.7	1.11	0.000166	238000	B10
0.163	0.941	0.0001	616000	B11
0.223	1.04	0.000128	575000	B12
0.603	1.11	0.000342	566000	B13
0.254	0.891	0.000146	576000	B14
1.2	0.948	0.000762	634000	B15
0.189	0.867	0.000125	660000	B16
0.414	1.03	0.00023	555000	B17

biological target: human mesothelin (MSLN) (human) (UniProt Q13421); assay: BLI (Octet), bsAb in 1+1 Fab-scFv-Fc format

Kd [nM]	Response	koff [s⁻¹]	kon [M⁻¹ s⁻¹]	Binder
0.0805	0.86	4.69e-05	583000	B1
0.0861	0.952	5.68e-05	660000	B2
0.721	1.15	0.000374	519000	B3
0.687	1.16	0.00037	539000	B4
0.103	0.981	7.35e-05	717000	B5
1.6	1.19	0.000773	483000	B6
0.286	1.11	0.000169	590000	B7
	0.107			B8
0.469	1.18	0.000199	425000	B9
0.795	1.17	0.000198	249000	B10
0.18	1.05	0.000113	627000	B11
0.283	1.11	0.000161	569000	B12
0.684	1.23	0.000375	549000	B13
0.601	1.02	0.000314	522000	B14
0.633	1.03	0.000383	605000	B15
0.135	0.978	9.35e-05	693000	B16
0.483	1.13	0.000268	555000	B17

biological target: human mesothelin (MSLN) (human) (UniProt Q13421); assay: BLI (Octet), multiple concentrations, bsAb in 1+1 Fab-scFv-Fc format

Kd [nM]	Response	koff [s⁻¹]	kon [M⁻¹ s⁻¹]	Binder
246	0.136	0.0816	332000	B18
90.4	0.202	0.0383	424000	B19
16.2	0.169	0.0103	635000	B20
	0.0022			B21
